# Assay results: US20230036655A1 (OTSUKA PHARMACEUTICAL, published 2023)
# Substitutions are numbered along the chain they refer to.
# T1: Peptide 1 (human, cysteine pairing not given here)
# T1 construct: Synthesized by GenScript
# T1 peptide: H-DHCPLGPGRCCRLH-OH
# T2: Peptide 2 (human, cysteine pairing not given here)
# T2 construct: Synthesized by GenScript
# T2 peptide: Ac-DHCPLGPGRCCRLH-NH2
# T3: mutant hGDF15 4A (human, UniProt Q99988 197-308)
# T3 construct: Expressed in ExpiCHO-S cells and used as culture supernatant
# T3 chain: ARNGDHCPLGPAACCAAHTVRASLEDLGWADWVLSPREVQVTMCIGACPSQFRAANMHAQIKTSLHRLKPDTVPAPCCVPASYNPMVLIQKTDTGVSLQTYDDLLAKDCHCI
# T4: mutant hGDF15 6A (human, UniProt Q99988 197-308)
# T4 construct: Expressed in ExpiCHO-S cells and used as culture supernatant
# T4 chain: T3 chain with G10A, P11A
# T5: mutant hGDF15 3A (human, UniProt Q99988 197-308)
# T5 construct: Expressed in ExpiCHO-S cells and used as culture supernatant
# T5 chain: T3 chain with A17L
# T6: mutant hGDF15 8A (human, UniProt Q99988 197-308)
# T6 construct: Expressed in ExpiCHO-S cells and used as culture supernatant
# T6 chain: T3 chain with P8A, L9A, G10A, P11A
# T7: mutant hGDF15 H6A (human, UniProt Q99988 197-308)
# T7 construct: Expressed in ExpiCHO-S cells and used as culture supernatant in the ELISA
# T7 chain: T3 chain with H6A, A12G, A13R, A16R, A17L
# T8: mutant hGDF15 R13A (human, UniProt Q99988 197-308)
# T8 construct: Expressed in ExpiCHO-S cells and used as culture supernatant in the ELISA
# T8 chain: T3 chain with A12G, A16R, A17L
# T9: mutant hGDF15 R16A (human, UniProt Q99988 197-308)
# T9 construct: Expressed in ExpiCHO-S cells and used as culture supernatant in the ELISA
# T9 chain: T3 chain with A12G, A13R, A17L
# T10: mutant hGDF15 R13A, R16A (human, UniProt Q99988 197-308)
# T10 construct: Expressed in ExpiCHO-S cells and used as culture supernatant in the ELISA
# T10 chain: T3 chain with A12G, A17L
# T11: mutant hGDF15 T72A (human, UniProt Q99988 197-308)
# T11 construct: Expressed in ExpiCHO-S cells and used as culture supernatant in the ELISA
# T11 chain: T3 chain with A12G, A13R, A16R, A17L, T72A
# T12: human GDF15 (hGDF15), mature, wild-type (human, UniProt Q99988 197-308)
# T12 construct: Bought recombinant protein: R&D Systems 957-GD-025/CF in most assays, 9279-GD in the crystal and the GDF15/GFRAL/RET assay; It was biotinylated in the GFRAL assay; also called hGDF15 (WT); rhGDF15
# T12 sequence: T3 chain with A12G, A13R, A16R, A17L
# B1: HuMAB2 (antibody, human IgG1, kappa, V domains shown)
# VH: QVQLQESGPGLVKPSETLSLTCTVSGFSINSDCYWIWIRQPPGKGLEYIGYTFYSGITYYNPSLASRTTISRDTSKNQFSLKLSSVTAADTAVYYCARDCDYAMDYWGQGTLVTVSS
# VL: DIQMTQSPSSLSASVGDRVTITCRASQDISNYLNWYQQKPGKAVKLLIHYTSTLHSGVPSRFSGSGSGTDYTLTISSLQPEDFATYFCQQGNTLPWTFGQGTKLEIKR
# notes: Humanized MAB2 joined to the constant region of bevacizumab; The printed copies of the L chain differ from each other; also called HuMAB2 antibody; H3delK/L7
# Columns and labels:
# Peptide 1 = target: T1, Peptide 1; experiment: ELISA, peptide immobilised, anti-human IgG-HRP detection
# Method: (§1) Peptide 1 was unmodified at both ends, and Peptide 2 was synthesized by acetylating the amino terminus and amidating the carboxyl terminus for the purpose of mimicking the natural state because this region is an internal region within hGDF15. HuMAB2 antibody (10 μg/mL) was added at 100 μL/well to a 96-well plate on which a 10 μg/mL peptide solution had been added at 100 μL/well and the peptide had been immobilized, and thereby reacted with the peptide (25° C. for 3 hours). The bound HuMAB2 antibody was detected by adding a 5000-fold diluted anti-human IgG-HRP (Jackson ImmunoResearch, 109-035-008) at 100 μL/well and reacted at 25° C. for 1 hour. A plate on which hGDF15 (R&D Systems, 957-GD-025/CF) was immobilized was used as a control plate. The detection antibody in Human GDF15 ELISA Kit (R&D Systems, DY957) (Table 9) was used as a positive control antibody that reacts with the peptide, and Human IgG1 Isotype control (Abcam, ab206198) was used as a negative control antibody.
# Peptide 2 = target: T2, Peptide 2; experiment: as above
# Method: as §1
# mutant hGDF15 4A [1] = target: T3, mutant hGDF15 4A; experiment: sandwich ELISA, HuMAB2 immobilised, mutant hGDF15, goat polyclonal detection (relative value 0.0)
# mutant hGDF15 6A [2] = target: T4, mutant hGDF15 6A; experiment: as above
# mutant hGDF15 3A [3] = target: T5, mutant hGDF15 3A; experiment: sandwich ELISA, HuMAB2 immobilised, mutant hGDF15, goat polyclonal detection (relative value 0.4)
# mutant hGDF15 8A [4] = target: T6, mutant hGDF15 8A; experiment: sandwich ELISA, HuMAB2 immobilised, mutant hGDF15, goat polyclonal detection (relative value -0.1)
# mutant hGDF15 H6A = target: T7, mutant hGDF15 H6A; experiment: sandwich ELISA: antibody immobilised, WT or mutant hGDF15, goat polyclonal detection; N=3, mean ± SD
# mutant hGDF15 R13A = target: T8, mutant hGDF15 R13A; experiment: as above
# mutant hGDF15 R16A = target: T9, mutant hGDF15 R16A; experiment: as above
# mutant hGDF15 R13A, R16A = target: T10, mutant hGDF15 R13A, R16A; experiment: as above
# mutant hGDF15 3A [5] = target: T5, mutant hGDF15 3A; experiment: as above
# mutant hGDF15 4A [6] = target: T3, mutant hGDF15 4A; experiment: as above
# mutant hGDF15 6A [7] = target: T4, mutant hGDF15 6A; experiment: as above
# mutant hGDF15 8A [8] = target: T6, mutant hGDF15 8A; experiment: as above
# mutant hGDF15 T72A = target: T11, mutant hGDF15 T72A; experiment: as above
# [9] = target: T12, human GDF15 (hGDF15), mature, wild-type; experiment: competition ELISA: GFRAL immobilised, biotinylated GDF15 plus serially diluted antibody; inhibition of GDF15-GFRAL complex formation
# Description: First, the effect on GDF15 and GFRAL complex formation was examined (FIG. 12). GFRAL (R&D systems, 9697-GR) was immobilized on a plate, and GDF15 (R&D systems, 957-GD/CF) biotinylated with EZ-Link Micro NHS-PEG4-Bitinylation Kit (Thermo Fisher Scientific, 21955) and a serially diluted solution of an anti-GDF15 monoclonal antibody (Table 26) were reacted with the plate. Human IgG1, kappa-Isotype Control (Abcam) was used as a negative control antibody. GDF15 bound to GFRAL was detected using Pierce High Sensitivity Streptavidin-HRP (Thermo Fisher Scientific, 21130). TMB 1-Component Microwell Peroxidase Substrate, SureBlue (SeraCare Life Sciences) was used for color development, and the reaction was stopped by adding a stop solution (Wako). Absorbance was measured at 450 nm (OD450) using Emax (Molecular Devices). The % of control value was calculated according to Equation-1 from the OD450 value when each antibody was added, with the OD450 value when no antibody was added as a control. The IC50 value was obtained by calculating the inhibition rate from the % of control value thus obtained according to Equation-2 and using an Excel macro for IC50 calculation.
binder,measurement,setting,value
B1,binding result,Peptide 1,no binding (tested: 10 µg/mL)
same,binding result,Peptide 2,no binding (tested: 10 µg/mL)
same,binding result,mutant hGDF15 4A [1],no binding
same,binding result,mutant hGDF15 6A [2],no binding
same,binding result,mutant hGDF15 3A [3],no binding
same,binding result,mutant hGDF15 8A [4],no binding
same,relative binding (amount bound to 500 pg/mL hGDF15 = 100),mutant hGDF15 H6A,136 relative value (WT hGDF15 = 100)
same,relative binding (amount bound to 500 pg/mL hGDF15 = 100),mutant hGDF15 R13A,17.8 relative value (WT hGDF15 = 100)
same,relative binding (amount bound to 500 pg/mL hGDF15 = 100),mutant hGDF15 R16A,24 relative value (WT hGDF15 = 100)
same,relative binding (amount bound to 500 pg/mL hGDF15 = 100) (relative value (WT hGDF15 = 100)),"mutant hGDF15 R13A, R16A",4.9
same,relative binding (amount bound to 500 pg/mL hGDF15 = 100),mutant hGDF15 3A [5],0.4 relative value (WT hGDF15 = 100)
same,relative binding (amount bound to 500 pg/mL hGDF15 = 100),mutant hGDF15 4A [6],0 relative value (WT hGDF15 = 100)
same,relative binding (amount bound to 500 pg/mL hGDF15 = 100),mutant hGDF15 6A [7],0 relative value (WT hGDF15 = 100)
same,relative binding (amount bound to 500 pg/mL hGDF15 = 100),mutant hGDF15 8A [8],-0.1 relative value (WT hGDF15 = 100)
same,relative binding (amount bound to 500 pg/mL hGDF15 = 100),mutant hGDF15 T72A,101 relative value (WT hGDF15 = 100)
same,IC50,[9],> 500 nM
